According to paper doi:10.64898/2025.12.24.696318, “TRAF6 coiled-coil domain mediates its trimerization” (bioRxiv, 2025):

B1: His6-THROM-TRAF6-CC (human TRAF6 coiled-coil domain, residues 288-348, with N-terminal His6 tag and thrombin cleavage site) (domain or fragment, UniProt Q9Y4K3 288-348, looked up)
chain: YISEVRNFQETIHQLEGRLVRQDHQIRELTAKMETQSMYVSELKRTIRTLEDKVAEIEAQQ
notes: TRAF6, human, UniProt Q9Y4K3, coiled-coil domain, residues Y288-Q348; Cloned in pET28a between NdeI and XhoI; a thrombin cleavage site lies between the His6 tag and the domain; Printed mass of the tagged monomer is 9.61 kDa; also called His6-TRAF6-CC; hexahistidine-tagged TRAF6-CC; source: E. coli BL21-CodonPlus (DE3) RIPL, purified (Ni-NTA, SEC); not shown: His6, N-terminal, kept
B2: tagless TRAF6-CC (human TRAF6 coiled-coil domain, residues 288-348, His6 tag removed by thrombin) (domain or fragment, UniProt Q9Y4K3 288-348, looked up)
chain: B1 chain
notes: TRAF6, human, UniProt Q9Y4K3, coiled-coil domain, residues Y288-Q348; Made from m1 by bovine thrombin; source: E. coli BL21-CodonPlus (DE3) RIPL, purified (Ni-NTA, thrombin cleavage, reverse Ni-NTA, SEC); not shown: His6, N-terminal, cleaved

Biological target: the molecule itself
Assay: SEC-MALS; Superdex 200 Increase 10/300; 20 mM Tris-HCl pH 8.0, 150 mM NaCl; 0.5 mL/min; His6-TRAF6-CC at 1 and 6.57 mg/ml, tagless TRAF6-CC at 0.934 and 1.57 mg/ml; calibrated with BSA

Protein | stoichiometry N
B1 | 3
B2 | 3
